In publication PMC12062221:
Values belong to the substance of their own block, whether it stands above or below them.

How the values were obtained:
[1] = molecular target: human histone (H3-H4)2 tetramer (human) (UniProt P68431); test: MST
[2] = molecular target: fluorescently labeled human H2a(G129C)-H2b dimer (human) (UniProt P04908); test: MST

Kd [1]: 107 nM
Substance: αSyn(1-103) (from UniProt P37840 1-103) (domain or fragment)

Kd [2]: 32400 nM
Substance: αSyn(1-131) (from UniProt P37840 1-131) (domain or fragment)

KD of one of two binding sites [2]: 500 nM | KD of the other of two binding sites [2]: 2600 nM
Substance: αSyn(121-140) peptide (from UniProt P37840 121-140)
